{"source": "paper PMC6093632", "molecular_target": "full-length human TRPV6 (transient receptor potential vanilloid subfamily member 6) (human)", "sequence (Q9H1D0 whole entry)": "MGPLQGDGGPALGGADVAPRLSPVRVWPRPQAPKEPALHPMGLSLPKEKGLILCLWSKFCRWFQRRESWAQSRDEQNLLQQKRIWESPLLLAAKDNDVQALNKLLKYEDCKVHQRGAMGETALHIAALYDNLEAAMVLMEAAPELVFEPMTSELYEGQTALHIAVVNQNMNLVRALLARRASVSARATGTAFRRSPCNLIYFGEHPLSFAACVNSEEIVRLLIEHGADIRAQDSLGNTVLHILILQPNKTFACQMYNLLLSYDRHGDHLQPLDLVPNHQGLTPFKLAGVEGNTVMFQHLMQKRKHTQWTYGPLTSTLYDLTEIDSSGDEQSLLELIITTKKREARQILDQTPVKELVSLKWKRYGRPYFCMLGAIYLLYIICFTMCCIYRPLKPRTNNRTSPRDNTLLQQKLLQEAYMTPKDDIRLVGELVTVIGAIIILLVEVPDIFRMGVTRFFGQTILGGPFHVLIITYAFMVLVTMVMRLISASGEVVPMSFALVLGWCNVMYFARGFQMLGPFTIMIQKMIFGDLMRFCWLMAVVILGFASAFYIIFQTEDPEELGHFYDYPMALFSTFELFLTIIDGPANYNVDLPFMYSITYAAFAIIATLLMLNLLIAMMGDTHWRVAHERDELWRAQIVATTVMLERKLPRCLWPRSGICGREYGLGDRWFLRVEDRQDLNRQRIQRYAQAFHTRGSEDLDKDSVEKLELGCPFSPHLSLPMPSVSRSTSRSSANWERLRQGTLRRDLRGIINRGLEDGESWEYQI", "assay": "cryo-EM structure", "data": [{"substance": "human calmodulin (CaM), recombinant (from UniProt P0DP23 1-149) (natural protein)", "values": [{"measurement": "stoichiometry N (CaM molecule per hTRPV6 tetramer)", "value": 1}]}]}
